Laboratory results published in patent US6995244 (OHIO STATE UNIVERSITY, dated 2006).

T1: human prolactin receptor on transfected FDC-P1 cells (human, UniProt P16471 25-622)
T1 sequence (looked up): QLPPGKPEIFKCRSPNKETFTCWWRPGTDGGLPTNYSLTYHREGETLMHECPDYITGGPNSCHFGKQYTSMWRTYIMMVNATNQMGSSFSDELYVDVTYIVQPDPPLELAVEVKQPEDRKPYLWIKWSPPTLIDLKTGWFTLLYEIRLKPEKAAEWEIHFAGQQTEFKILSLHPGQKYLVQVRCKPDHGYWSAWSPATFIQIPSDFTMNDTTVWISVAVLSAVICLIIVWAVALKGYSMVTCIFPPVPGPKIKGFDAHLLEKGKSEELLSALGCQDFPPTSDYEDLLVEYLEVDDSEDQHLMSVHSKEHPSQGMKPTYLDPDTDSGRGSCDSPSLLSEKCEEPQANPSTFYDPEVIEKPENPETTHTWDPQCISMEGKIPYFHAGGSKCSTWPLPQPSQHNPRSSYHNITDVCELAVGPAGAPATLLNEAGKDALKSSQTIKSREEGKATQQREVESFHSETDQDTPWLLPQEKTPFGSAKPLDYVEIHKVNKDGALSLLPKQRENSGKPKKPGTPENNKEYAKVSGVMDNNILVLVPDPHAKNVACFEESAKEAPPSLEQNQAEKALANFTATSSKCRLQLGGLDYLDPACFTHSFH

T2: extracellular domain of the human prolactin receptor (human, UniProt P16471 25-234)
T2 construct: extracellular domain; also called extracellular domain of the human lactogenic receptor; lactogenic receptor
T2 sequence (looked up): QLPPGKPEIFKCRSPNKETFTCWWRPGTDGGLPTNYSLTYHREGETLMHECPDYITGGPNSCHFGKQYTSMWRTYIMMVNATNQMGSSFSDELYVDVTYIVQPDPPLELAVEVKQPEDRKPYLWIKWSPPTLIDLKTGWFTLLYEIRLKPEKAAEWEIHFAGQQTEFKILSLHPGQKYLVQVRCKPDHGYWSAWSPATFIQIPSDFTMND


Tests used:
[1] = target: growth hormone receptor (FDC-P1 somatotrophic assay); test: cell-based or functional assay
[2] = target: human prolactin receptor on transfected FDC-P1 cells (human) (UniProt P16471); test: cell-based or functional assay
[3] = target: T1, human prolactin receptor on transfected …; test: cell-based or functional assay
[4] = target: T2, extracellular domain of the human …; test: SPR, saturating equilibrium at 100 µM receptor ECD (FIG. 10, lower panel)
Protocol: Experiments were then performed in studies that measured the maximal binding of lactogenic receptor (the extracellular domain of the prolactin receptor prepared by recombinant DNA technology). The various prolactins were bound with high concentrations (100 μM) of extracellular domain of the human prolactin receptor.

[5] = target: T2, extracellular domain of the human …; test: SPR (BIACORE 3000), prolactin coupled to the chip through Cys 158, receptor ECD 50-800 nM, induced-fit model, site 1 (ka1)
Protocol: (§1) The extracellular domain of the human lactogenic receptor was flowed across the prolactin-linked chip surface at various concentrations and the binding kinetics followed by the optical bench. Human lactogenic receptor (extracellular domain) concentrations varied between 50 nM and 800 nM. […] A single receptor model was used for G129C human prolactin, where site 2 was blocked by the chemistry employed to couple the protein to the chip surface.
(§2) Rate constants were calculated from the association and dissociation curves, respectively, with concentrations of the extracellular domain of the human lactogenic receptor (50, 80, 100, 200, 500 and 800 nM).

[6] = target: T2, extracellular domain of the human …; test: SPR (BIACORE 3000), prolactin coupled to the chip through Cys 158, receptor ECD 50-800 nM, induced-fit model, site 2 (KD2)
Protocol: as §1, §2

[7] = target: T2, extracellular domain of the human …; test: SPR (BIACORE 3000), prolactin coupled to the chip through Cys 158, receptor ECD 50-800 nM, induced-fit model, site 2 (ka2)
Protocol: as §1, §2

[8] = target: T2, extracellular domain of the human …; test: SPR (BIACORE 3000), prolactin coupled to the chip through Cys 158, receptor ECD 50-800 nM, induced-fit model, site 1 (kd1); site 1 (kd1), prolactin coupled through Cys 158
Protocol: as §1, §2

[9] = target: T2, extracellular domain of the human …; test: SPR (BIACORE 3000), prolactin coupled to the chip through Cys 158, receptor ECD 50-800 nM, induced-fit model, site 2 (kd2)
Protocol: as §1, §2

[10] = target: T2, extracellular domain of the human …; test: SPR (BIACORE 3000), prolactin coupled to the chip through Cys 158, receptor ECD 50-800 nM, induced-fit model, site 1 (KD1)
Protocol: as §1, §2

[11] = target: T2, extracellular domain of the human …; test: SPR (BIACORE 3000), prolactin coupled to the chip through residue 129 (site 2 blocked), receptor ECD 50-800 nM, single-site model, site 1 (kd1)
Protocol: as §1, §2

[12] = target: T2, extracellular domain of the human …; test: SPR (BIACORE 3000), prolactin coupled to the chip through residue 129 (site 2 blocked), receptor ECD 50-800 nM, single-site model, site 1 (ka1)
Protocol: as §1, §2

[13] = target: T2, extracellular domain of the human …; test: SPR (BIACORE 3000), prolactin coupled to the chip through residue 129 (site 2 blocked), receptor ECD 50-800 nM, single-site model, site 1 (KD1)
Protocol: as §1, §2

Molecule	ED50 (nM), FDC-P1 somatotrophic assay [1]	ED50 (nM), FDC-P1 lactogenic assay (cell proliferation, Alamar blue) [3]	Relative fold loss of activity, FDC-P1 lactogenic assay [3]	further results
L93E human growth hormone (from UniProt P01241 27-217) (ligand)	0.234 nM	–	–	–
L163F human growth hormone (from UniProt P01241 27-217) (ligand)	0.235 nM	–	–	–
Y164E human growth hormone (from UniProt P01241 27-217) (ligand)	0.151 nM	–	–	–
Y160E human growth hormone (from UniProt P01241 27-217) (ligand)	0.186 nM	–	–	–
wild-type recombinant human growth hormone (from UniProt P01241 27-217) (ligand)	0.0712 nM	–	–	ED50 (nM), FDC-P1 lactogenic assay [2]: 1.76 nM
L163A human growth hormone (from UniProt P01241 27-217) (ligand)	0.13 nM	–	–	–
F44E human growth hormone (from UniProt P01241 27-217) (ligand)	0.576 nM	–	–	–
L98E human prolactin (ligand) MLPICPGGAARCQVTLRDLFDRAVVLSHYIHNLSSEMFSEFDKRYTHGRGFITKAINSCHTSSLATPEDKEQAQQMNQKDFLSLIVSILRSWNEPLYHEVTEVRGMQEAPEAILSKAVEIEEQTKRLLEGMELIVSQVHPETKENEIYPVWSGLPSLQMADEESRLSAYYNLLHCLRRDSHKIDNYLKLLKCRIIHNNNC	–	63.1 nM	87.7 fold	–
L165E human prolactin (ligand) MLPICPGGAARCQVTLRDLFDRAVVLSHYIHNLSSEMFSEFDKRYTHGRGFITKAINSCHTSSLATPEDKEQAQQMNQKDFLSLIVSILRSWNEPLYHLVTEVRGMQEAPEAILSKAVEIEEQTKRLLEGMELIVSQVHPETKENEIYPVWSGLPSLQMADEESRESAYYNLLHCLRRDSHKIDNYLKLLKCRIIHNNNC	–	29.5 nM	41 fold	–
Y169E human prolactin (ligand) MLPICPGGAARCQVTLRDLFDRAVVLSHYIHNLSSEMFSEFDKRYTHGRGFITKAINSCHTSSLATPEDKEQAQQMNQKDFLSLIVSILRSWNEPLYHLVTEVRGMQEAPEAILSKAVEIEEQTKRLLEGMELIVSQVHPETKENEIYPVWSGLPSLQMADEESRLSAYENLLHCLRRDSHKIDNYLKLLKCRIIHNNNC	–	64.8 nM	90 fold	–
L171E human prolactin (ligand) MLPICPGGAARCQVTLRDLFDRAVVLSHYIHNLSSEMFSEFDKRYTHGRGFITKAINSCHTSSLATPEDKEQAQQMNQKDFLSLIVSILRSWNEPLYHLVTEVRGMQEAPEAILSKAVEIEEQTKRLLEGMELIVSQVHPETKENEIYPVWSGLPSLQMADEESRLSAYYNELHCLRRDSHKIDNYLKLLKCRIIHNNNC	–	5.7 nM	8 fold	–
H173E human prolactin (ligand) MLPICPGGAARCQVTLRDLFDRAVVLSHYIHNLSSEMFSEFDKRYTHGRGFITKAINSCHTSSLATPEDKEQAQQMNQKDFLSLIVSILRSWNEPLYHLVTEVRGMQEAPEAILSKAVEIEEQTKRLLEGMELIVSQVHPETKENEIYPVWSGLPSLQMADEESRLSAYYNLLECLRRDSHKIDNYLKLLKCRIIHNNNC	–	1130 nM	1570 fold	–
F50E human prolactin (ligand) MLPICPGGAARCQVTLRDLFDRAVVLSHYIHNLSSEMFSEFDKRYTHGRGEITKAINSCHTSSLATPEDKEQAQQMNQKDFLSLIVSILRSWNEPLYHLVTEVRGMQEAPEAILSKAVEIEEQTKRLLEGMELIVSQVHPETKENEIYPVWSGLPSLQMADEESRLSAYYNLLHCLRRDSHKIDNYLKLLKCRIIHNNNC	–	1 nM	5 fold	–
ΔF50 human prolactin (ligand) MLPICPGGAARCQVTLRDLFDRAVVLSHYIHNLSSEMFSEFDKRYTHGRGITKAINSCHTSSLATPEDKEQAQQMNQKDFLSLIVSILRSWNEPLYHLVTEVRGMQEAPEAILSKAVEIEEQTKRLLEGMELIVSQVHPETKENEIYPVWSGLPSLQMADEESRLSAYYNLLHCLRRDSHKIDNYLKLLKCRIIHNNNC	–	0.03 nM	2.7 fold	–
L95E human prolactin (ligand) MLPICPGGAARCQVTLRDLFDRAVVLSHYIHNLSSEMFSEFDKRYTHGRGFITKAINSCHTSSLATPEDKEQAQQMNQKDFLSLIVSILRSWNEPEYHLVTEVRGMQEAPEAILSKAVEIEEQTKRLLEGMELIVSQVHPETKENEIYPVWSGLPSLQMADEESRLSAYYNLLHCLRRDSHKIDNYLKLLKCRIIHNNNC	–	5.6 nM	7.8 fold	–
M158C human prolactin (ligand, Cys 158 disulfide-coupled through a thiol to the dextran polymer of the SPR chip surface, Recombinant, expressed in E. coli) MLPICPGGAARCQVTLRDLFDRAVVLSHYIHNLSSEMFSEFDKRYTHGRGFITKAINSCHTSSLATPEDKEQAQQMNQKDFLSLIVSILRSWNEPLYHLVTEVRGMQEAPEAILSKAVEIEEQTKRLLEGMELIVSQVHPETKENEIYPVWSGLPSLQCADEESRLSAYYNLLHCLRRDSHKIDNYLKLLKCRIIHNNNC	–	–	–	stoichiometry (receptors bound to each prolactin) [4]: 2 receptors per prolactin; kon [5]: 14300 M⁻¹ s⁻¹; Kd [6]: 153 nM; kon [7]: 2560 M⁻¹ s⁻¹; koff [8]: 0.00157 s⁻¹; koff [9]: 0.00039 s⁻¹; Kd [10]: 109 nM
G129C human prolactin (ligand, Cys 129 disulfide-coupled through a thiol to the dextran polymer of the SPR chip surface, Recombinant, E. coli) MLPICPGGAARCQVTLRDLFDRAVVLSHYIHNLSSEMFSEFDKRYTHGRGFITKAINSCHTSSLATPEDKEQAQQMNQKDFLSLIVSILRSWNEPLYHLVTEVRGMQEAPEAILSKAVEIEEQTKRLLECMELIVSQVHPETKENEIYPVWSGLPSLQMADEESRLSAYYNLLHCLRRDSHKIDNYLKLLKCRIIHNNNC	–	–	–	stoichiometry (receptors bound to each prolactin) [4]: ~1 receptors per prolactin; koff [11]: 0.00119 s⁻¹; kon [12]: 19600 M⁻¹ s⁻¹; Kd [13]: 60.5 nM
